± gives the uncertainty stated by the source.
Assay: self-splicing fitness, log relative to wild type (ln ratio); higher = more splicing; Tetrahymena group I intron in knt gene, E. coli kanamycin selection, DiMSum; sequences stand for … in CUCUCU…GGAGGGAAAAGUUAUCAGGCAUGCACCUGGUAGCUAGUCUUUAAACCAAUAGAUUGCAUCGGUUUAAAAGGCAAGACCGUCAAAUUGCGGGAAAGGGGUCAACAGCCGUUCAGUACCAAGUCUCAGGGGAAACUUUGAGAUGGCCUUGCAAAGGGUAUGGUAAUAAGCUGACGGACAUGGUCCUAACCACGCAGCCAAGUCCUAAGUCAACAGAUCUUCUGUUGAUAUGGAUGCAGUUCACAGACUAAAUGUCGGUCGGGGAAGAUGUAUUCUUCUCAUAAGAUAUAGUCGGACCUCUCCUUAAUGGGAGCUAGCGGAUGAAGUGAUGCAACACUGGAGCCGCUGGGAACUAAUUUGUAUGCGAAAGUAUAUUGAUUAGUUUUGGAGUACUCGUGGUCG
In short: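 The eight P1ex-region nucleotides of an intron in the knt kanamycin-resistance gene on pET-22b(+) were all randomised and the library put into E. coli BL21(DE3). Six replicate transformations were grown overnight at 37°C or 30°C on LB agar with or without 25 μg/mL kanamycin, together with 100 μg/mL carbenicillin, 50 μM IPTG and 0.2% rhamnose. Colonies were pooled and amplicon-sequenced on an Illumina HiSeq 2500. Fitness from DiMSum is the error-weighted combination of wild-type-normalised replicate fold changes, kanamycin over none.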

Sequence	self-splicing fitness (ln) (30 °C)	self-splicing fitness (ln) (37 °C)
AUCAAGCAAUAUUACGACUC	-0.467 ± 0.1	-0.0986 ± 0.14
AUCAAGCAAUAUUACGAGAG	-3.32 ± 0.16	-1.76 ± 0.11
AUCAAGCAAUAUUACGAGGG	-2.85 ± 0.19	-1.39 ± 0.19
AUCAAGCAAUAUUACGAGGU	-3.52 ± 0.2	-3.4 ± 0.33
AUCAAGCAAUAUUACGAUAA	-1.99 ± 0.11	-0.292 ± 0.092
AUCAAGCAAUAUUACGCAAU	-2.22 ± 0.14	-1.56 ± 0.14
AUCAAGCAAUAUUACGCCAC	-1.42 ± 0.29	-1.79 ± 0.4
AUCAAGCAAUAUUACGCGUA	-1.02 ± 0.086	-0.375 ± 0.08
AUCAAGCAAUAUUACGCGUG	-2.23 ± 0.08	-0.744 ± 0.084
AUCAAGCAAUAUUACGCUAU	-3.18 ± 0.16	-0.907 ± 0.12
AUCAAGCAAUAUUACGCUUG	-4.23 ± 0.39	-2.6 ± 0.22
AUCAAGCAAUAUUACGGCAU	-0.523 ± 0.067	0.787 ± 0.088
AUCAAGCAAUAUUACGGGGA	-1.43 ± 0.12	-1.49 ± 0.13
AUCAAGCAAUAUUACGGUGC	-3.24 ± 0.17	-3.12 ± 0.24
AUCAAGCAAUAUUACGGUUU	-1.29 ± 0.073	-0.35 ± 0.075
AUCAAGCAAUAUUACGUAGG	-2.91 ± 0.1	-1.51 ± 0.11
AUCAAGCAAUAUUACGUCAG	-3.41 ± 0.18	-1.92 ± 0.16
AUCAAGCAAUAUUACGUGGA	-2.28 ± 0.14	-1.71 ± 0.12
AUCAAGCAAUAUUACGUUGA	-2.52 ± 0.1	-1.8 ± 0.12
AUCCAGCAAUAUUACGAAAU	-0.769 ± 0.084	-0.546 ± 0.11
AUCCAGCAAUAUUACGAAGU	-1.21 ± 0.079	-1.2 ± 0.094
AUCCAGCAAUAUUACGAAUU	-1.43 ± 0.084	-1.04 ± 0.11
AUCCAGCAAUAUUACGACGG	-4 ± 0.3	-1.8 ± 0.19
AUCCAGCAAUAUUACGACUC	-0.847 ± 0.071	0.244 ± 0.1
AUCCAGCAAUAUUACGAGCU	-2.2 ± 0.096	-2.03 ± 0.17

Sequence	self-splicing fitness (ln) (30 °C)	self-splicing fitness (ln) (37 °C)
AUCCAGCAAUAUUACGAGGG	-2.9 ± 0.1	-1.49 ± 0.11
AUCCAGCAAUAUUACGAGUC	-2.87 ± 0.17	-2.01 ± 0.21
AUCCAGCAAUAUUACGAUUA	-1.19 ± 0.094	-0.911 ± 0.1
AUCCAGCAAUAUUACGCAAA	-2.07 ± 0.16	-0.15 ± 0.11
AUCCAGCAAUAUUACGCAUC	-2.92 ± 0.18	-1.97 ± 0.14
AUCCAGCAAUAUUACGCCUA	-1.29 ± 0.19	0.121 ± 0.13
AUCCAGCAAUAUUACGCCUG	-3.86 ± 0.26	-2.09 ± 0.16
AUCCAGCAAUAUUACGCGGU	–	-3.32 ± 0.42
AUCCAGCAAUAUUACGCUAG	-2.76 ± 0.11	-1.11 ± 0.12
AUCCAGCAAUAUUACGCUGG	-3.65 ± 0.19	-1.7 ± 0.16
AUCCAGCAAUAUUACGCUGU	-2.12 ± 0.14	-2.02 ± 0.14
AUCCAGCAAUAUUACGCUUC	-3.58 ± 0.16	-2.15 ± 0.15
AUCCAGCAAUAUUACGCUUU	-0.879 ± 0.076	-0.641 ± 0.086
AUCCAGCAAUAUUACGGCAA	-0.324 ± 0.1	-0.263 ± 0.12
AUCCAGCAAUAUUACGGCAU	-0.192 ± 0.071	0.204 ± 0.082
AUCCAGCAAUAUUACGGCUC	-1.39 ± 0.078	-0.482 ± 0.099
AUCCAGCAAUAUUACGGUGG	-4.66 ± 0.33	-2.49 ± 0.21
AUCCAGCAAUAUUACGUCGU	-0.689 ± 0.062	-0.625 ± 0.077
AUCCAGCAAUAUUACGUCUG	-3.67 ± 0.23	-2.55 ± 0.25
AUCCAGCAAUAUUACGUGGG	-2.58 ± 0.1	-3.5 ± 0.13
AUCCAGCAAUAUUACGUGUC	-3.34 ± 0.16	-2.24 ± 0.14
AUCGAGCAAUAUUACGAAGA	-1.74 ± 0.44	-1.65 ± 0.38
AUCGAGCAAUAUUACGAAGC	-3.18 ± 0.39	–
AUCGAGCAAUAUUACGAAGG	-2.56 ± 0.23	-2.28 ± 0.31
AUCGAGCAAUAUUACGAAUG	–	-2.06 ± 0.28

Sequence	self-splicing fitness (ln) (30 °C)	self-splicing fitness (ln) (37 °C)
AUCGAGCAAUAUUACGACAC	-2.4 ± 0.29	-0.469 ± 0.22
AUCGAGCAAUAUUACGACCA	-2.06 ± 0.22	-0.741 ± 0.28
AUCGAGCAAUAUUACGACGU	-0.331 ± 0.096	0.0461 ± 0.12
AUCGAGCAAUAUUACGACUC	-3.4 ± 0.3	-1.98 ± 0.27
AUCGAGCAAUAUUACGACUG	-2.17 ± 0.13	-1.64 ± 0.15
AUCGAGCAAUAUUACGACUU	-0.779 ± 0.15	-0.826 ± 0.19
AUCGAGCAAUAUUACGAGGG	-1.4 ± 0.17	-2.1 ± 0.46
AUCGAGCAAUAUUACGAGUA	-3.25 ± 0.41	-1.58 ± 0.28
AUCGAGCAAUAUUACGAUGG	–	-2.17 ± 0.38
AUCGAGCAAUAUUACGAUGU	-2.9 ± 0.12	-1.76 ± 0.11
AUCGAGCAAUAUUACGCCCA	-1.77 ± 0.24	-1.37 ± 0.3
AUCGAGCAAUAUUACGCCGA	-3.08 ± 0.34	–
AUCGAGCAAUAUUACGCUAA	-3.48 ± 0.21	-2.88 ± 0.18
AUCGAGCAAUAUUACGCUCG	-2.72 ± 0.35	–
AUCGAGCAAUAUUACGCUUA	-2.01 ± 0.18	-0.429 ± 0.13
AUCGAGCAAUAUUACGGAAG	–	-0.716 ± 0.16
AUCGAGCAAUAUUACGGACC	-0.501 ± 0.48	–
AUCGAGCAAUAUUACGGUCC	-3.46 ± 0.46	–
AUCGAGCAAUAUUACGUAAG	-2.16 ± 0.44	-1.61 ± 0.3
AUCGAGCAAUAUUACGUAGU	-3.47 ± 0.14	-1.96 ± 0.15
AUCGAGCAAUAUUACGUAUG	-3.84 ± 0.19	-4.4 ± 0.46
AUCGAGCAAUAUUACGUAUU	-3.67 ± 0.21	-2.5 ± 0.18
AUCGAGCAAUAUUACGUCCA	–	0.309 ± 0.47
AUCGAGCAAUAUUACGUCUG	-3.46 ± 0.34	-1.43 ± 0.19
AUCGAGCAAUAUUACGUGGG	-4.14 ± 0.33	-2.42 ± 0.24

Sequence	self-splicing fitness (ln) (30 °C)	self-splicing fitness (ln) (37 °C)
AUCUAGCAAUAUUACGAACA	-1.53 ± 0.14	-0.645 ± 0.12
AUCUAGCAAUAUUACGAGAG	-1.88 ± 0.11	-0.329 ± 0.1
AUCUAGCAAUAUUACGAGGC	–	-2.69 ± 0.34
AUCUAGCAAUAUUACGAUAG	-2.36 ± 0.33	-1.16 ± 0.44
AUCUAGCAAUAUUACGAUUG	-3.1 ± 0.28	-2.79 ± 0.34
AUCUAGCAAUAUUACGCAAU	-2.02 ± 0.089	-1.37 ± 0.09
AUCUAGCAAUAUUACGCGAC	-2.29 ± 0.4	-0.43 ± 0.39
AUCUAGCAAUAUUACGCGAU	–	-2.53 ± 0.29
AUCUAGCAAUAUUACGCGUA	-0.86 ± 0.11	-0.721 ± 0.13
AUCUAGCAAUAUUACGCUAC	-1.85 ± 0.34	-1.72 ± 0.4
AUCUAGCAAUAUUACGGAAU	-1.87 ± 0.16	-2.1 ± 0.19
AUCUAGCAAUAUUACGGACC	-0.962 ± 0.16	-0.141 ± 0.23
AUCUAGCAAUAUUACGGCCU	-0.214 ± 0.1	-0.589 ± 0.14
AUCUAGCAAUAUUACGGUCC	-1.34 ± 0.21	1.22 ± 0.25
AUCUAGCAAUAUUACGUAGC	-3.71 ± 0.35	-1.84 ± 0.27
AUCUAGCAAUAUUACGUCCU	-1.07 ± 0.078	0.137 ± 0.096
AUCUAGCAAUAUUACGUUGA	-2.53 ± 0.11	-1.7 ± 0.11
AUCUAGCAAUAUUACGUUGU	-3.68 ± 0.17	-2.27 ± 0.13
AUGAAGCAAUAUUACGAACG	-0.583 ± 0.094	0.0323 ± 0.12
AUGAAGCAAUAUUACGACAU	0.292 ± 0.012	0.49 ± 0.032
AUGAAGCAAUAUUACGACCG	-0.584 ± 0.24	-0.447 ± 0.27
AUGAAGCAAUAUUACGACUA	0.0947 ± 0.059	-0.133 ± 0.059
AUGAAGCAAUAUUACGAGAC	-2.73 ± 0.43	-1.28 ± 0.47
AUGAAGCAAUAUUACGAGAG	-2.78 ± 0.15	-0.788 ± 0.1

From the supplement of paper PMC7877785
